Results as given in patent US20190077849A1.
Read-outs that look alike come from different tables or passages of the source.

Columns and labels:
Test in all cases: cell-based or functional assay
[1] = target: HIV-1 Env of 6101.10.SG3 pseudovirus (clade B) (HIV-1)
[2] = target: HIV-1 Env of TH966.8.SG3 pseudovirus (clade AE) (HIV-1)
[3] = target: HIV-1 Env of CNE31.SG3 pseudovirus (clade C) (HIV-1)
[4] = target: HIV-1 Env of KER2008.12.SG3 pseudovirus (clade A) (HIV-1)
[5] = target: HIV-1 Env of YU2.DG.SG3 pseudovirus (clade B) (HIV-1) (UniProt P35961)
[6] = target: HIV-1 Env of ZM215.8.SG3 pseudovirus (clade C) (HIV-1)
[7] = target: HIV-1 Env of 6095.V1.C10.SG3 pseudovirus (clade ACD) (HIV-1)
[8] = target: HIV-1 Env of PVO.04.SG3 pseudovirus (clade B) (HIV-1)
[9] = target: HIV-1 Env of ZM106.9.SG3 pseudovirus (clade C) (HIV-1)
[10] = target: HIV-1 Env of 6101.10.SG3 pseudovirus (clade B) (HIV-1); remark: listed apart in the source
[11] = target: HIV-1 Env of TH966.8.SG3 pseudovirus (clade AE) (HIV-1); remark: listed apart in the source
[12] = target: HIV-1 Env of CNE31.SG3 pseudovirus (clade C) (HIV-1); remark: listed apart in the source
[13] = target: HIV-1 Env of KER2008.12.SG3 pseudovirus (clade A) (HIV-1); remark: listed apart in the source
[14] = target: HIV-1 Env of YU2.DG.SG3 pseudovirus (clade B) (HIV-1) (UniProt P35961); remark: listed apart in the source
[15] = target: HIV-1 Env of ZM215.8.SG3 pseudovirus (clade C) (HIV-1); remark: listed apart in the source
[16] = target: HIV-1 Env of 6095.V1.C10.SG3 pseudovirus (clade ACD) (HIV-1); remark: listed apart in the source
[17] = target: HIV-1 Env of PVO.04.SG3 pseudovirus (clade B) (HIV-1); remark: listed apart in the source
[18] = target: HIV-1 Env of ZM106.9.SG3 pseudovirus (clade C) (HIV-1); remark: listed apart in the source

Chain of 10E8v4 S100cH (antibody) (VH): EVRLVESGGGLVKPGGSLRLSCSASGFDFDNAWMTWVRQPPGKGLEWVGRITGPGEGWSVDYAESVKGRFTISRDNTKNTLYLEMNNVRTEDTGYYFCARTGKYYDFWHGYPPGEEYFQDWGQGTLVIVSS
Chain of 10E8v4 S100cH (antibody) (VL): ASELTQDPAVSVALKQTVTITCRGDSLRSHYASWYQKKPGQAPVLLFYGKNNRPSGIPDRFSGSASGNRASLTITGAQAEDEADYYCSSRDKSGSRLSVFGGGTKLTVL
Chain of 10E8v4 S100cL (antibody) (VH): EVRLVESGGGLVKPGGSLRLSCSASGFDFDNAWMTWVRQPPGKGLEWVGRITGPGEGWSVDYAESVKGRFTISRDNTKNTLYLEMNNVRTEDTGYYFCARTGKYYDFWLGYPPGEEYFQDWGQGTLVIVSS
Chain of 10E8v4 S100cL (antibody) (VL): as the sequence (VL) above

Substance | IC50, pseudovirus neutralization [1] | IC50, pseudovirus neutralization [2] | IC50, pseudovirus neutralization [3] | IC50, pseudovirus neutralization [4] | IC50, pseudovirus neutralization [5] | IC50, pseudovirus neutralization [6] | IC50, pseudovirus neutralization [7] | IC50, pseudovirus neutralization [8] | IC50, pseudovirus neutralization [9] | also measured
10E8v4 VL Y32N (antibody) | > 50 µg/mL | > 50 µg/mL | > 50 µg/mL | > 50 µg/mL | > 50 µg/mL | > 50 µg/mL | 2.92 µg/mL | > 50 µg/mL | > 50 µg/mL | 
10E8v4 VL Y32R (antibody) | > 50 µg/mL | 4.08 µg/mL | > 50 µg/mL | > 50 µg/mL | > 50 µg/mL | 7.52 µg/mL | 0.152 µg/mL | > 50 µg/mL | > 50 µg/mL | 
10E8v4 VL Y32A (antibody) | > 50 µg/mL | 3.53 µg/mL | > 50 µg/mL | > 50 µg/mL | > 50 µg/mL | 11.7 µg/mL | 0.409 µg/mL | > 50 µg/mL | > 50 µg/mL | 
10E8v4 VL Y32K (antibody) | > 50 µg/mL | 10.2 µg/mL | > 50 µg/mL | > 50 µg/mL | > 50 µg/mL | 33 µg/mL | 0.359 µg/mL | > 50 µg/mL | > 50 µg/mL | 
10E8v4 S100cL (antibody) |  |  |  |  |  |  |  |  |  | IC50, pseudovirus neutralization [10]: 0.007 µg/mL; IC80, pseudovirus neutralization [10]: 0.049 µg/mL; IC50, pseudovirus neutralization [11]: 0.011 µg/mL; IC80, pseudovirus neutralization [11]: 0.079 µg/mL; IC50, pseudovirus neutralization [12]: 0.354 µg/mL; IC80, pseudovirus neutralization [12]: 1.01 µg/mL; IC50, pseudovirus neutralization [13]: > 50 µg/mL; IC80, pseudovirus neutralization [13]: > 50 µg/mL; IC50, pseudovirus neutralization [14]: 0.333 µg/mL; IC80, pseudovirus neutralization [14]: 1.75 µg/mL; IC50, pseudovirus neutralization [15]: 0.015 µg/mL; IC80, pseudovirus neutralization [15]: 0.095 µg/mL; IC50, pseudovirus neutralization [16]: 0.001 µg/mL; IC80, pseudovirus neutralization [16]: 0.002 µg/mL; IC50, pseudovirus neutralization [17]: 0.507 µg/mL; IC80, pseudovirus neutralization [17]: 2.21 µg/mL; IC50, pseudovirus neutralization [18]: > 50 µg/mL; IC80, pseudovirus neutralization [18]: > 50 µg/mL
10E8v4 VL Y32I (antibody) | > 50 µg/mL | 21.4 µg/mL | > 50 µg/mL | > 50 µg/mL | > 50 µg/mL | > 50 µg/mL | 1.3 µg/mL | > 50 µg/mL | > 50 µg/mL | 
10E8v4 S100cH (antibody) |  |  |  |  |  |  |  |  |  | IC50, pseudovirus neutralization [10]: 0.103 µg/mL; IC80, pseudovirus neutralization [10]: 0.643 µg/mL; IC50, pseudovirus neutralization [11]: 0.091 µg/mL; IC80, pseudovirus neutralization [11]: 0.488 µg/mL; IC50, pseudovirus neutralization [12]: 2.24 µg/mL; IC80, pseudovirus neutralization [12]: 6.79 µg/mL; IC50, pseudovirus neutralization [13]: > 50 µg/mL; IC80, pseudovirus neutralization [13]: > 50 µg/mL; IC50, pseudovirus neutralization [14]: 2.59 µg/mL; IC80, pseudovirus neutralization [14]: 10.9 µg/mL; IC50, pseudovirus neutralization [15]: 0.141 µg/mL; IC80, pseudovirus neutralization [15]: 0.966 µg/mL; IC50, pseudovirus neutralization [16]: 0.011 µg/mL; IC80, pseudovirus neutralization [16]: 0.046 µg/mL; IC50, pseudovirus neutralization [17]: 3.4 µg/mL; IC80, pseudovirus neutralization [17]: 14 µg/mL; IC50, pseudovirus neutralization [18]: > 50 µg/mL; IC80, pseudovirus neutralization [18]: > 50 µg/mL
10E8v4 VL Y32D (antibody) | > 50 µg/mL | > 50 µg/mL | > 50 µg/mL | > 50 µg/mL | > 50 µg/mL | > 50 µg/mL | 1.55 µg/mL | > 50 µg/mL | > 50 µg/mL | 
10E8v4 VL Y32H (antibody) | 7.4 µg/mL | 0.788 µg/mL | 29.9 µg/mL | > 50 µg/mL | 8.76 µg/mL | 1.39 µg/mL | 0.032 µg/mL | > 50 µg/mL | > 50 µg/mL | 
10E8v4 VL Y32F (antibody) | 0.08 µg/mL | 0.031 µg/mL | 3.2 µg/mL | > 50 µg/mL | 2 µg/mL | 0.102 µg/mL | 0.017 µg/mL | 2.25 µg/mL | > 50 µg/mL | 
